Biological target: ACE-2–GFP, secreted form of angiotensin converting enzyme-2 fused to green fluorescent protein (UniProt Q9BYF1)
Experiment: SPR; format not told in the text (Supplementary Fig. S2)

Chain of ACE-2–GFP, secreted form of angiotensin converting enzyme-2 fused to green fluorescent protein (Q9BYF1 18-740): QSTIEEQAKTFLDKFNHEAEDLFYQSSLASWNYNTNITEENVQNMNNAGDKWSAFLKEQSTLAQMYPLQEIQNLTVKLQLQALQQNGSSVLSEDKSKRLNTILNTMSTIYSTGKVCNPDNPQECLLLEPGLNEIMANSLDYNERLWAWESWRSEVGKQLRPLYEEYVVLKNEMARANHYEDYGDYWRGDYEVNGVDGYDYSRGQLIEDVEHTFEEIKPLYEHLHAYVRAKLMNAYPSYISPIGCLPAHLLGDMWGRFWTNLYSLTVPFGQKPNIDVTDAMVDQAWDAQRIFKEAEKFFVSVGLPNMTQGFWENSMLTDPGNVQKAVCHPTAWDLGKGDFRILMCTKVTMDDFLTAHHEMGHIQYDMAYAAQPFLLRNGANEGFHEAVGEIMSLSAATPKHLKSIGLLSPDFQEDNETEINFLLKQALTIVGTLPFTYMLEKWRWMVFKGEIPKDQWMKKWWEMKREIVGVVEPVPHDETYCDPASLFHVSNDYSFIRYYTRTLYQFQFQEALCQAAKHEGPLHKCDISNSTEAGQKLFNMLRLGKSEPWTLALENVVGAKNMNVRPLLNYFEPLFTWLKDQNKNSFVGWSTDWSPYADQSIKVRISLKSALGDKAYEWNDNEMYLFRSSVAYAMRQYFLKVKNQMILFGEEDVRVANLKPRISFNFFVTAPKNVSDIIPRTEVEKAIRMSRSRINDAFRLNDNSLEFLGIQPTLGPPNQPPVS

B1: SARS-CoV S1 (residues 19–713), Fc-tagged fusion protein (Fc fusion)
chain: not shown
Kd: 87.1 nM

Source: publication PMC2886958 (The Journal of General Virology, 2008)
